Publication PMC4242493, “Sequence specificity incompletely defines the genome-wide occupancy of Myc”

What was measured:
Myc;MaxL [1] = molecular target: T1, Myc;MaxL (Homo sapiens;Homo sapiens, UniProt P01106-1;P61244 1-439;1-160, |); experiment: EMSA; stoichiometric, 125 nM, silver stain; EMSA: 25 mM HEPES pH 7.6, 100 mM KCl, 1 mM DTT, 0.1 mM EDTA, 0.01% Triton, 30 min at room temperature; 6% polyacrylamide gel in 0.5X Tris/glycine; conditions: protein: recombinant;recombinant; tags: C-terminal His-tag (pET21a);C-terminal His-tag (pET21a); copies: 1;1; label: unlabeled
T1 sequence (P01106 16-454, chain 1 of 2): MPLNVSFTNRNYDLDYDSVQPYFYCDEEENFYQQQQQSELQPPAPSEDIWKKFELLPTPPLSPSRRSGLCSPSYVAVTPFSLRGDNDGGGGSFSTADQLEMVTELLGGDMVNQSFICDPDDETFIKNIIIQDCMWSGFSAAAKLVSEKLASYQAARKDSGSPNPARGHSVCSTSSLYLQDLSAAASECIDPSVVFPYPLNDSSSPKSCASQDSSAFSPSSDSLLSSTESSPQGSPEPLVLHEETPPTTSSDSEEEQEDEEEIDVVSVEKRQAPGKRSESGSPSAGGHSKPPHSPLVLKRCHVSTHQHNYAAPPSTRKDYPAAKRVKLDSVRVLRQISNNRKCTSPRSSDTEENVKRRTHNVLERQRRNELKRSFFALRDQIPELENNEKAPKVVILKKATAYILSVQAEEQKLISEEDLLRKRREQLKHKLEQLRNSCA
T1 sequence (P61244 whole entry, chain 2 of 2): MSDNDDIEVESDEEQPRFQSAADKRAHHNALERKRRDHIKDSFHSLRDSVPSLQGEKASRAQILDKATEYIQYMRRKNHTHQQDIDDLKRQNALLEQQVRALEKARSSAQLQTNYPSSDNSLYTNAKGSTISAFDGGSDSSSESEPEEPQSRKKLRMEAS

Myc;MaxS = Myc;MaxS (human? (HeLa cDNA);human? (HeLa cDNA), UniProt P01106-1;P61244-2 1-439;1-151, |); experiment: as above; conditions: protein: recombinant;recombinant; tags: C-terminal His-tag (pET21a);C-terminal His-tag (pET21a); copies: 1;1; label: unlabeled
Chain of Myc;MaxS (P01106 16-454, chain 1 of 2): as the sequence (P01106 16-454, chain 1 of 2) above
Chain of Myc;MaxS (P61244 other isoform, or with tags, fused parts or gaps |, chain 2 of 2): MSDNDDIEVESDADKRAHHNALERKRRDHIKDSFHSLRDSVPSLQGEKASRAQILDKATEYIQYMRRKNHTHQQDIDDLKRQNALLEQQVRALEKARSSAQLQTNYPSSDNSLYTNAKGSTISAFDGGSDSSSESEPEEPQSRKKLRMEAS

Myc;MaxL [2] = molecular target: T1, Myc;MaxL; experiment: EMSA; 0.01 nM probe; EMSA: 25 mM HEPES pH 7.6, 100 mM KCl, 1 mM DTT, 0.1 mM EDTA, 0.01% Triton, 30 min at room temperature; 6% polyacrylamide gel in 0.5X Tris/glycine; conditions: protein: recombinant;recombinant, tags: C-terminal His-tag (pET21a);C-terminal His-tag (pET21a), copies: 1;1
MaxL = MaxL (human? (HeLa cDNA), UniProt P61244 1-160); experiment: EMSA; 0.01 nM probe; MaxL homodimer; EMSA: 25 mM HEPES pH 7.6, 100 mM KCl, 1 mM DTT, 0.1 mM EDTA, 0.01% Triton, 30 min at room temperature; 6% polyacrylamide gel in 0.5X Tris/glycine; conditions: protein: recombinant; tags: C-terminal His-tag (pET21a); chain copies: 2; unlabeled in silver-stained EMSA
Chain of MaxL (P61244 whole entry): as the sequence (P61244 whole entry, chain 2 of 2) above

B1: GTGGTG probe (26 bp) (dsDNA)
DNA 1: GAGGGATCGGGTGGTGGGATCGGAGG
DNA 2: CCTCCGATCCCACCACCCGATCCCTC
binding result (Myc;MaxL [1]): binds | binding result (Myc;MaxS): binds

B2: ATCTAG probe (26 bp) (dsDNA)
DNA 1: GAGGGATCGGATCTAGGGATCGGAGG
DNA 2: CCTCCGATCCCTAGATCCGATCCCTC
Kd (Myc;MaxL [2]; label: 32P 5' end-labeled on both strands (Kd)): 20 nM

B3: CACGTG probe (26 bp) (dsDNA)
DNA 1: GAGGGATCGGCACGTGGGATCGGAGG
DNA 2: CCTCCGATCCCACGTGCCGATCCCTC
Kd (Myc;MaxL [2]; unlabeled in silver-stained EMSA): 0.1 nM | Kd (MaxL): 0.4 nM
